Drawing on article PMC8367650, this text covers stoichiometry N for one substance.

The target of this assay is IdeS FabRICATOR enzyme. Nature of the assay: SEC.

Consider IdeS FabRICATOR enzyme, for which the stoichiometry N was found to be 2.
